The assay concerns the target T1, Biotinylated C4d (UniProt P0C0L4 957-1336, limits assumed, biotinylated (thioester moiety; NHS-PEG4-Biotin Kit)).
T1 construct: domain: C4d; also called C4d (biotinylated, on streptavidin sensor chip)
T1 sequence (looked up): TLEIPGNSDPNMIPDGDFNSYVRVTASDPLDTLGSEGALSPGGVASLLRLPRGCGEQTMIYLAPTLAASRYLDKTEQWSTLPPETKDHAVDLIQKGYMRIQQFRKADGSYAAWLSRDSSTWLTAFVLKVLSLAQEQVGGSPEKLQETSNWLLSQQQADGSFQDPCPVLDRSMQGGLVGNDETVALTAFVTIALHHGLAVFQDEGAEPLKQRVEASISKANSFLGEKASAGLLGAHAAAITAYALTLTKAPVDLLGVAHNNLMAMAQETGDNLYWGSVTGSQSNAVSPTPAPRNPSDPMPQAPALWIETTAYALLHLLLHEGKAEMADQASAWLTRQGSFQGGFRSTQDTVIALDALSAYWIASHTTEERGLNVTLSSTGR
As to the kind of experiment: SPR, biotinylated C4d on streptavidin chip.

B1: FH(15-18) (other, human, UniProt P08603 868-1104, looked up)
chain: IPCSQPPQIEHGTINSSRSSQESYAHGTKLSYTCEGGFRISEENETTCYMGKWSSPPQCEGLPCKSPPEISHGVVAHMSDSYQYGEEVTYKCFEGFGIDGPAIAKCLGEKWSHPPSCIKTDCLSLPSFENAIPMGEKKDVYKAGEQVTYTCATYYKMDGASNVTCINSRWTGRPTCRDTSCVNPPTVQNAYIVSRQMSKYPSGERVRYQCRSPYEMFGDEEVMCLNGNWTEPPQCKD
notes: domain: protein domains 15-18; Control protein; also called protein domains 15-18 of FH
Consider B1, for which the binding result is “no binding”.

The values are drawn from patent EP4559472A1 (Universität Ulm, dated 2025).
